Patent US20090075898A1 (YEDA RESEARCH AND DEVELOPMENT CO LTD AT THE WEIZMANN …, published 2009)
Ends that are not written are not given here. * marks the point of attachment. Biotin = O=C1N[C@H]2[C@H](CS[C@H]2CCCCC(=O)*)N1

B1: biotinylated peptide of the 1st extracellular loop of the human FcεRI β chain (peptide)
peptide: Biotin-SVLDISHIEGDIFSSFKAGY
notes: also called first extracellular loop of human FcεRI β-chain
B2: human complement component C3a (ligand)
chain: not shown
B3: biotinylated peptide of the 2nd extracellular loop of the human FcεRI β chain (peptide)
peptide: Biotin-KSLAYIHIHSCQKFFETKCFMAS
modifications: cysteine pairing not given here
notes: also called second extracellular loop of human FcεRI β-chain

Experiments:
[1] = target: B2; assay: SPR (BIACORE 2000), biotinylated peptide on streptavidin chip, C3a as analyte; Kd = koff/kon from kobs plots; first extracellular loop of the human protein
C5a = target: T1, C5a (UniProt P01031 678-751); assay: SPR (BIACORE 2000), peptide on streptavidin chip, C5a as analyte
T1 construct: domain: C5a; Control analyte in SPR
T1 sequence (looked up): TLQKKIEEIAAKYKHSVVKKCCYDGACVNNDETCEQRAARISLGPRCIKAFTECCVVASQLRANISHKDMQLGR

[2] = target: T2, multisubunit FcεRI receptor complex on rat RBL-2H3 cells and rat peritoneal mast cells (rat, UniProt P12371 24-245; P13386 1-243; P20411 19-86); assay: cell-based or functional assay
T2 sequence (looked up) 1: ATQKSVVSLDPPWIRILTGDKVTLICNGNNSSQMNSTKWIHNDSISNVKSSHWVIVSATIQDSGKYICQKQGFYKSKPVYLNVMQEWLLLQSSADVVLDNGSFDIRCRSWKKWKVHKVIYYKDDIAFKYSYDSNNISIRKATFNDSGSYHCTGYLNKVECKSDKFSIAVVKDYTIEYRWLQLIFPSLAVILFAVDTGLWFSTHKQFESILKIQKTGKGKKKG
T2 sequence (looked up) 2: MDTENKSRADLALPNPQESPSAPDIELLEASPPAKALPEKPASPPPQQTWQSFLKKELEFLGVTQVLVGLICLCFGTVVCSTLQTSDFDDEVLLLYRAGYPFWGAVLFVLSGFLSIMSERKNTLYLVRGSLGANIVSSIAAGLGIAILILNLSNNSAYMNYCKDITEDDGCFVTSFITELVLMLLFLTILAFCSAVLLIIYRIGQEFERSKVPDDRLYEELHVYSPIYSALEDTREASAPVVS
T2 sequence (looked up) 3: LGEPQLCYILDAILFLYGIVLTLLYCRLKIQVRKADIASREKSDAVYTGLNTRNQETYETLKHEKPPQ

[3] = target: T3, β-chain of the high affinity IgE receptor (FcεRI) on mouse bone marrow derived mast cells (mouse, UniProt P20490 1-235); assay: cell-based or functional assay
T3 sequence (looked up): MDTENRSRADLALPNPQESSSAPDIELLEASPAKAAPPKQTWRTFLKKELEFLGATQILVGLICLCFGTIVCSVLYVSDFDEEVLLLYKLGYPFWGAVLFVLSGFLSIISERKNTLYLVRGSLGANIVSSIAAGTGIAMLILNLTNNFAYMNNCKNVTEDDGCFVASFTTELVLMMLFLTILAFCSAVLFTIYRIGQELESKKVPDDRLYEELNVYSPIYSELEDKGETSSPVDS

[4] = target: B2; assay: SPR (BIACORE 2000), peptide on streptavidin chip, C3a as analyte

Binder	Kd [1]	binding result (C5a)	Inhibitory effect (IC50, µM) on the IgE-mediated degranulation of RBL-2H3 [2]	Inhibitory effect (IC50, µM) on the IgE-mediated degranulation of BMMC [3]	binding result [4]
B1	250 nM	no binding			
B2			2.4 µM	0.2 µM	
B3		no binding			no binding
